# Reference: article PMC6332122, “Identification of RNA Oligonucleotides Binding to Several Proteins from Potential G-Quadruplex Forming Regions in Transcribed Pre-mRNA”
# Changes are numbered by the printed parent chain.
# B1: VEGFA intronic G4_1 (structured_RNA)
# RNA: GGGGGCGGGAGCCAGAGACCAGUGGGCAGGG
# B2: VEGFA 5' UTR G4 (structured_RNA)
# RNA: GGAGGAGGGGGAGGAGGA
# B3: VEGFA intronic G4_2 (structured_RNA)
# RNA: GGGGGCAGGGCGCAGGAGGGAGAGGGGG
# B4: PDGFB intronic G4_2 (structured_RNA)
# RNA: GGGCACUCGGGUAGGGGGAGGACUAGGG
# B5: PDGFA intronic G4_2 (structured_RNA)
# RNA: GGGGUGCGGGGAGCGGGGAAGGG
# B6: PDGFA intronic G4_1 (structured_RNA)
# RNA: GGGGAAGGGGAGCUGGGGCGCAGCGGG
# B7: PDGFB intronic G4_3 (structured_RNA)
# RNA: GGGUUUGGUUGGGCACAGGGCACGGG
# B8: PDGFB intronic G4_1 (structured_RNA)
# RNA: GGGCGCGGGGUUUGGGGUGGG
# B9: VEGFA intronic G4_1 mutant (structured_RNA)
# RNA: B1 RNA with G2U, G3U, G4U
# B10: VEGFA 5' UTR G4 mutant (ssRNA)
# RNA: GGAUUAGUGUGAGGAGGA
# B11: VEGFA intronic G4_2 mutant (ssRNA)
# RNA: UUUUUCAGGGCGCAGGAGGGAGAUUUUU
# Target: alpha-Thrombin (human, UniProt P00734;P00734 328-363;364-622)
# Test: SPR; SPR: PBS (137 mM NaCl, 2.7 mM KCl, 8 mM Na2HPO4, 2 mM KH2PO4) pH 7.4, 25 °C, protein on CM5; EMSA: 50 mM Tris-HCl, 100 mM KCl, pH 7.5, room temperature, 1 uM RN
# Settings: not given
row,Binder,binding result
1,B1,no binding
2,B2,no binding
3,B3,no binding

# Target: T1, VEGF165 (UniProt P15692-4 27-191)
# Test: SPR; SPR: PBS (137 mM NaCl, 2.7 mM KCl, 8 mM Na2HPO4, 2 mM KH2PO4) pH 7.4, 25 °C, protein on CM5; EMSA: 50 mM Tris-HCl, 100 mM KCl, pH 7.5, room temperature, 1 uM RNA, 15% PAGE in TBE
# Settings: protein: commercial; label: 5' fluorescein for EMSA; none for SPR; parallel G4
# T1 sequence (P15692 other isoform, or with tags, fused parts or gaps): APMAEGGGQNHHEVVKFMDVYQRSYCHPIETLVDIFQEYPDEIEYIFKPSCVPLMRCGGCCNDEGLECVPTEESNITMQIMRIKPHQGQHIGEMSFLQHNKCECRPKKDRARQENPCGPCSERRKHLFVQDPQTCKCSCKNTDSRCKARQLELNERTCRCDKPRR
row,Binder,Kd
1,B1,140 nM

# Same assay, conditions: protein: commercial; parallel G4
row,Binder,Kd
1,B4,150 nM
2,B5,200 nM
3,B6,490 nM
4,B7,440 nM
5,B2,300 nM
6,B8,130 nM
7,B3,31 nM

# Target: PDGF-AA (UniProt P04085 87-211)
# Test: as above
# Settings: protein: commercial; chain copies: 2; label: 5' fluorescein for EMSA; none for SPR; parallel G4
row,Binder,Kd
1,B1,20 nM

# Same assay, conditions: protein: commercial; chain copies: 2; parallel G4
row,Binder,Kd
1,B4,20 nM
2,B5,30 nM
3,B6,30 nM
4,B7,40 nM
5,B2,60 nM
6,B8,30 nM
7,B3,20 nM

# Target: PDGF-BB (UniProt P01127 82-190)
# Test: as above
# Settings: protein: commercial; chain copies: 2; label: 5' fluorescein for EMSA; none for SPR; parallel G4
# Sequence of PDGF-BB (P01127 82-190): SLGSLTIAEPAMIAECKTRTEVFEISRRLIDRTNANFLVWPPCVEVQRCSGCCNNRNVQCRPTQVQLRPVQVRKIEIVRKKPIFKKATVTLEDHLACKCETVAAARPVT
row,Binder,Kd
1,B1,40 nM

# Same assay, conditions: protein: commercial; chain copies: 2; parallel G4
row,Binder,Kd
1,B4,30 nM
2,B5,30 nM
3,B6,30 nM
4,B7,60 nM
5,B2,110 nM
6,B8,40 nM
7,B3,30 nM

# Target: T1, VEGF165
# Test: SPR; up to 1000 nM RNA; SPR: PBS (137 mM NaCl, 2.7 mM KCl, 8 mM Na2HPO4, 2 mM KH2PO4) pH 7.4, 25 °C, protein on CM5; EMSA: 50 mM Tris-HCl, 100 mM KCl, pH 7.5, room temperature, 1 uM RNA, 15% PAGE in TBE
# Settings: protein: commercial; label: 5' fluorescein for EMSA; none for SPR; unexpected parallel G4 by CD
row,Binder,binding result
1,B9,no binding

# Same assay, conditions: protein: commercial; no parallel G4 by CD
row,Binder,binding result
1,B10,no binding
2,B11,no binding
